Assay results as given in patent publication US20240408238.

System: AcrIIC5Smu

Nme1Cas9-Nme2Cas9PID chimera (Nme1Cas9 with its PID replaced by that of Nme2Cas9)
in vitro DNA cleavage by the PID-swapped chimera in the presence of Acr (10-fold ratio; ~30x higher Cas9 concentration): No inhibition was observed by AcrIIC5Smu on this protein chimera
